This assay concerns the target His6-tev-DPP9 (UniProt Q86TI2). As to the kind of experiment: SEC-MALS; co-eluting SEC fractions of FIIND, DPP9 and free UPA co-expressed in Sf9 and co-purified; 0.5-1.0 mg/ml, Superose 6 increase (10/300) GL, buffer A without glycerol.

The values that follow come from article PMC9700037.

Chain of His6-tev-DPP9 (Q86TI2 whole entry): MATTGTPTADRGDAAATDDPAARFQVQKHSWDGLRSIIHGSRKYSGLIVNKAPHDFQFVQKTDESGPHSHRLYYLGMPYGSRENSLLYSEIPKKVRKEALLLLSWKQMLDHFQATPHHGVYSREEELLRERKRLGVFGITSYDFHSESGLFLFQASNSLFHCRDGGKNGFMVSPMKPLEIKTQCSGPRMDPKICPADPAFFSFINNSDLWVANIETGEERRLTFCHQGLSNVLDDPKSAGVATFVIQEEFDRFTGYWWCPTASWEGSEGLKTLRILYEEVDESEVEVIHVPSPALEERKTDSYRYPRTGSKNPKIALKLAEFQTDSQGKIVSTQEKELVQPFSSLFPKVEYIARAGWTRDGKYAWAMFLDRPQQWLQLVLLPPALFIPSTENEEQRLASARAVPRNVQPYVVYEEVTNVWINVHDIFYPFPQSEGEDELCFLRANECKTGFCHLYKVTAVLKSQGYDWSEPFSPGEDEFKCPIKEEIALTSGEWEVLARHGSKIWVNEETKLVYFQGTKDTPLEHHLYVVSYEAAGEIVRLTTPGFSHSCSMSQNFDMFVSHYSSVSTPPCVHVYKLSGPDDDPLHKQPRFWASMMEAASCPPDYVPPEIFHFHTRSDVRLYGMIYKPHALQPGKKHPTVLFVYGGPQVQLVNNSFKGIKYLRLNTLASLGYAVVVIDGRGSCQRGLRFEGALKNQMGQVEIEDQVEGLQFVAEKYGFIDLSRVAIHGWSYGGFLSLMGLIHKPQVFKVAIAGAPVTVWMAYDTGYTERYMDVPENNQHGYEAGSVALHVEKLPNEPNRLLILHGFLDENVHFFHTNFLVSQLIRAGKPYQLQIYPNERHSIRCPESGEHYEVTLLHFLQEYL
Chain of free UPA domain (from the SUMO-UPA construct) (domain or fragment) (Q9C000 whole entry, the tested form may be a part): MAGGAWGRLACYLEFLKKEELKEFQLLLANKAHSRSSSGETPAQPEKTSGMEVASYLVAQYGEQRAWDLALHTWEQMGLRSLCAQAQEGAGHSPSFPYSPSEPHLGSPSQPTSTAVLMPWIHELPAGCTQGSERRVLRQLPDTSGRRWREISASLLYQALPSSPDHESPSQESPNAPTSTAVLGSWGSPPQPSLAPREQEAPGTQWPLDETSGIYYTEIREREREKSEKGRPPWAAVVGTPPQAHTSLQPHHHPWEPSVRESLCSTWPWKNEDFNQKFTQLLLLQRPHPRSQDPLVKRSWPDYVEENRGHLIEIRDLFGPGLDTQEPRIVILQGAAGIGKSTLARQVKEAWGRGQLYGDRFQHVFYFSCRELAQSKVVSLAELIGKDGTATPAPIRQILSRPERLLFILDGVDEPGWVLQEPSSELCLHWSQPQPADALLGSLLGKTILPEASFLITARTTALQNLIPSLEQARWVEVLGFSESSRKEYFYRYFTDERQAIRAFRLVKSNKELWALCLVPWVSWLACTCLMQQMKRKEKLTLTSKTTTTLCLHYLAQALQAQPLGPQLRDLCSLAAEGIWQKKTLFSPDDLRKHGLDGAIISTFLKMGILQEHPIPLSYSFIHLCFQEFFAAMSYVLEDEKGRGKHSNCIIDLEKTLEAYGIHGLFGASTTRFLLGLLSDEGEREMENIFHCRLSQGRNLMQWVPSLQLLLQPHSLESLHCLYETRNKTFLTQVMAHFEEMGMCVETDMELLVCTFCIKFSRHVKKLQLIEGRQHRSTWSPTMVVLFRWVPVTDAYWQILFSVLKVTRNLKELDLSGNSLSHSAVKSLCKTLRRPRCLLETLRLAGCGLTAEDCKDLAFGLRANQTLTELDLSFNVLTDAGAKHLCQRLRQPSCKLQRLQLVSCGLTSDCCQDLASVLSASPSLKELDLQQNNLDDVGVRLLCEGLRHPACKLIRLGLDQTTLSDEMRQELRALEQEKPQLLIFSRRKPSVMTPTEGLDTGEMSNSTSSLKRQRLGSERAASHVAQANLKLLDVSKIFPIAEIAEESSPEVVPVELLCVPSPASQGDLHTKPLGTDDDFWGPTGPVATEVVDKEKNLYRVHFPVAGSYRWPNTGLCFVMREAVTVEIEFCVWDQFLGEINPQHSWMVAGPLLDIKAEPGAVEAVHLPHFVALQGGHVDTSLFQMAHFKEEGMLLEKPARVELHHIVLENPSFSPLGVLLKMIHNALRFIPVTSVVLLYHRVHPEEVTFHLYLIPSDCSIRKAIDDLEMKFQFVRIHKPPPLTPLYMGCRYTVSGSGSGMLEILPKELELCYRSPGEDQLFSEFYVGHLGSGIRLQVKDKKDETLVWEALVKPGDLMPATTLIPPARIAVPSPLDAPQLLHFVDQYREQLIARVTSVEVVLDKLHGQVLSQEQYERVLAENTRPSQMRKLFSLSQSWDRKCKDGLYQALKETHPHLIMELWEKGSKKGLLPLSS

Take “free UPA domain (from the SUMO-UPA construct) (domain or fragment)”: the stoichiometry N (UPA per DPP9 dimer) turned out to be 1.
